Patent US20210130474A1 (DRAGONFLY THERAPEUTICS, published 2021)
Substitutions are numbered along the chain they refer to.

B1: A49-TriNKET-CAIX (ADI-27749 and a CAIX-binding domain) (bispecific antibody, V domains shown)
VH 1: EVQLVESGGGLVKPGGSLRLSCAASGFTFSSYSMNWVRQAPGKGLEWVSSISSSSSYIYYADSVKGRFTISRDNAKNSLYLQMNSLRAEDTAVYYCARGAPMGAAAGWFDPWGQGTLVTVSS
VL 1: DIQMTQSPSSVSASVGDRVTITCRASQGISSWLAWYQQKPGKAPKLLIYAASSLQSGVPSRFSGSGSGTDFTLTISSLQPEDFATYYCQQGVSFPRTFGGGTKVEIK
VH 2: QVELVESGGGLVQPGGSLRLSCAASGFTFSSYGMSWVRQAPGKGLEWVSGISSLGSTTYYADSVKGRFTISRDNSKNTLYLQMNSLRAEDTAVYYCARTGSPGTFMHGDHWGQGTLVTVSS
VL 2: DIQMTQSPSSLSASVGDRVTITCRASQDINNYLSWYQQKPGKAPKLLIYGASNLQSGVPSRFSGSGSGTDFTLTISSLQPEDFAVYYCQQYYGRPTTFGQGTKVEIK
B2: F47-TriNKET-CAIX (ADI-29447 and a CAIX-binding domain) (bispecific antibody, V domains shown)
VH 1: QVQLQQWGAGLLKPSETLSLTCAVYGGSFSGYYWSWIRQPPGKGLEWIGEIDHSGSTNYNPSLKSRVTISVDTSKNQFSLKLSSVTAADTAVYYCARARGPWSFDPWGQGTLVTVSS
VL 1: DIQMTQSPSTLSASVGDRVTITCRASQSISSWLAWYQQKPGKAPKLLIYKASSLESGVPSRFSGSGSGTEFTLTISSLQPDDFATYYCQQYDTFITFGGGTKVEIK
VH 2: B1 VH 2
VL 2: B1 VL 2
B3: A44-TriNKET-CAIX (ADI-27744 and a CAIX-binding domain) (bispecific antibody, V domains shown)
VH 1: not shown
VL 1: B1 VL 1 with S30D, F94Y
VH 2: B1 VH 2
VL 2: B1 VL 2
B4: E79-TriNKET-CAIX (ADI-29379 and a CAIX-binding domain) (bispecific antibody, V domains shown)
VH 1: QVQLVQSGAEVKKPGASVKVSCKASGYTFTSYYMHWVRQAPGQGLEWMGIINPSGGSTSYAQKFQGRVTMTRDTSTSTVYMELSSLRSEDTAVYYCARGAPNYGDTTHDYYYMDVWGKGTTVTVSS
VL 1: EIVMTQSPATLSVSPGERATLSCRASQSVSSNLAWYQQKPGQAPRLLIYGASTRATGIPARFSGSGSGTEFTLTISSLQSEDFAVYYCQQYDDWPFTFGGGTKVEIK
VH 2: B1 VH 2
VL 2: B1 VL 2

Assays:
[1] = biological target: T1, CAIX expressed on human renal cell carcinoma line A498 (human, UniProt Q16790 38-459); assay: cell-based or functional assay
[2] = biological target: T1, CAIX expressed on human renal cell …; assay: flow cytometry on A498 cells, MFI fold over background
Text: Human renal cell carcinoma line A498 expressing CAIX was used to assay the binding of TriNKETs to the tumor associated antigen CAIX.

Row | Binder | specific lysis of A498 target cells by rested KHYG-1 cells (DELFIA cytotoxicity assay), increase over co-culture without TriNKET [1] [%] | binding result [2]
1 | B1 | ~20 | –
2 | B2 | – | binds
3 | B3 | ~20 | –
4 | B4 | ~20 | –
